Reference: US20170260249A1 (IMMATICS BIOTECHNOLOGIES, published 2017)
Blank lines part the entries; values can stand above or below the binder they belong to.

Molecular target: HLA-A*02:01 (peptide-receptive MHC class I molecule, heavy chain with beta-2-microglobulin) (human)
Experiment: UV-ligand exchange, anti-b2m ELISA; peptide exchange yield grade (>10% = +; >20% = ++; >50 = +++; >75% = ++++)
Excerpt: Candidate peptides for T cell based therapies according to the present invention were further tested for their MHC binding capacity (affinity). The individual peptide-MHC complexes were produced by UV-ligand exchange, where a UV-sensitive peptide is cleaved upon UV-irradiation, and exchanged with the peptide of interest as analyzed. Only peptide candidates that can effectively bind and stabilize the peptide-receptive MHC molecules prevent dissociation of the MHC complexes. To determine the yield of the exchange reaction, an ELISA was performed based on the detection of the light chain (β2m) of stabilized MHC complexes. The assay was performed as generally described in Rodenko et al. (Rodenko et al., 2006).
96 well MAXISorp plates (NUNC) were coated over night with 2 ug/ml streptavidin in PBS at room temperature, washed 4× and blocked for 1 h at 37° C. in 2% BSA containing blocking buffer. Refolded HLA-A*02:01/MLA-001 monomers served as standards, covering the range of 15-500 ng/ml. Peptide-MHC monomers of the UV-exchange reaction were diluted 100 fold in blocking buffer. Samples were incubated for 1 h at 37° C., washed four times, incubated with 2 ug/ml HRP conjugated anti-β2m for 1 h at 37° C., washed again and detected with TMB solution that is stopped with […]. Absorption was measured at 450 nm. Candidate peptides that show a high exchange yield (preferably higher than 50%, most preferred higher than 75%) are generally preferred for a generation and production of antibodies or fragments thereof, and/or T cell receptors or fragments thereof, as they show sufficient avidity to the MHC molecules and prevent dissociation of the MHC complexes.

peptide exchange yield: > 75%
B1: ILLELFTHV (SEQ ID NO: 25) (peptide)
peptide: ILLELFTHV
notes: synthetic peptide; source genes FBXO6, FBXO44

peptide exchange yield: 50 to 75%
Binder: RILDIDIPLSV (synthetic peptide; source gene TFCP2L1) [RILDIDIPLSV (SEQ ID NO: 38)]

peptide exchange yield: 50 to 75%
Binder: VLVSSVLGV (synthetic peptide; source gene SIGIRR) [VLVSSVLGV (SEQ ID NO: 22)]

peptide exchange yield: 50 to 75%
Binder: TLLPTLYEI (synthetic peptide; source gene RNF180) [TLLPTLYEI (SEQ ID NO: 35)]

peptide exchange yield: 10 to 20%
Binder: IGIGPVLNI (synthetic peptide; source gene TMLHE) [IGIGPVLNI (SEQ ID NO: 29)]

peptide exchange yield: 50 to 75%
Binder: SLLSDIIAL (synthetic peptide; source gene PIGQ) [SLLSDIIAL (SEQ ID NO: 36)]

peptide exchange yield: 50 to 75%
Binder: VLLATVTEL (synthetic peptide; source gene SLC35E1) [VLLATVTEL (SEQ ID NO: 37)]

peptide exchange yield: > 75%
Binder: AIAGRLLGV (synthetic peptide; source gene CLCN5) [AIAGRLLGV (SEQ ID NO: 34)]

peptide exchange yield: > 75%
Binder: SVLAGVVGV (synthetic peptide; source gene GUCY1A2) [SVLAGVVGV (SEQ ID NO: 26)]

peptide exchange yield: 50 to 75%
Binder: ALDGKIYEL (synthetic peptide; source gene ARHGAP5) [ALDGKIYEL (SEQ ID NO: 39)]

peptide exchange yield: 50 to 75%
Binder: KLNSSIQYV (synthetic peptide; source gene PKHD1L1) [KLNSSIQYV (SEQ ID NO: 16)]

peptide exchange yield: > 75%
Binder: SLLSELVEA (synthetic peptide; source gene KLHDC5) [SLLSELVEA (SEQ ID NO: 6)]

peptide exchange yield: 50 to 75%
Binder: GLDGATYTV (synthetic peptide; source gene SEMA4C) [GLDGATYTV (SEQ ID NO: 3)]

peptide exchange yield: 20 to 50%
Binder: VLLHVSVLL (synthetic peptide; source gene ZDHHC24) [VLLHVSVLL (SEQ ID NO: 45)]

peptide exchange yield: 50 to 75%
Binder: GLDEAIRKV (synthetic peptide; source gene GLYATL2) [GLDEAIRKV (SEQ ID NO: 28)]

peptide exchange yield: 50 to 75%
Binder: ALQNKVVAL (synthetic peptide; source gene NXNL2) [ALQNKVVAL (SEQ ID NO: 13)]

peptide exchange yield: 20 to 50%
Binder: SILSLLIKL (synthetic peptide; source gene UBR3) [SILSLLIKL (SEQ ID NO: 7)]

peptide exchange yield: 50 to 75%
Binder: SLYPGTETM (synthetic peptide; source gene SVIL) [SLYPGTETM (SEQ ID NO: 9)]

peptide exchange yield: > 75%
Binder: VLLDIFTGV (synthetic peptide; source gene LIG3) [VLLDIFTGV (SEQ ID NO: 2)]

peptide exchange yield: > 75%
Binder: ALDPIIHGL (synthetic peptide; source gene PTPRG) [ALDPIIHGL (SEQ ID NO: 11)]

peptide exchange yield: 50 to 75%
Binder: RLDIQGTGQLL (synthetic peptide; source gene PIGR) [RLDIQGTGQLL (SEQ ID NO: 4)]

peptide exchange yield: 50 to 75%
Binder: GLIENTYQL (synthetic peptide; source gene RNF175) [GLIENTYQL (SEQ ID NO: 32)]

peptide exchange yield: 50 to 75%
Binder: ILDAQTAFV (synthetic peptide; source gene ABCC1) [ILDAQTAFV (SEQ ID NO: 24)]

peptide exchange yield: 50 to 75%
Binder: GLVEQLYDL (synthetic peptide; source gene NOC2L) [GLVEQLYDL (SEQ ID NO: 47)]

peptide exchange yield: > 75%
B2: GLGPNLVGV (SEQ ID NO: 23) (peptide)
peptide: GLGPNLVGV
notes: synthetic peptide; source genes SLC25A36, SLC25A33

The next lines start with the binder.

Binder: FLVDSLISA (synthetic peptide; source gene HOXD10) [FLVDSLISA (SEQ ID NO: 14)]
peptide exchange yield: > 75%

Binder: VLNPETTVV (synthetic peptide; source gene PAPSS1) [VLNPETTVV (SEQ ID NO: 27)]
peptide exchange yield: 50 to 75%

Binder: SLFDEVRQI (synthetic peptide; source gene STX18) [SLFDEVRQI (SEQ ID NO: 5)]
peptide exchange yield: > 75%

Binder: ALISEKLETL (synthetic peptide; source gene DNAJC10) [ALISEKLETL (SEQ ID NO: 52)]
peptide exchange yield: 50 to 75%

Binder: ALLTAVTNV (synthetic peptide; source gene LEMD2) [ALLTAVTNV (SEQ ID NO: 31)]
peptide exchange yield: 50 to 75%

Binder: NMDDVIYYV (synthetic peptide; source gene RNF145) [NMDDVIYYV (SEQ ID NO: 46)]
peptide exchange yield: 50 to 75%

Binder: SMTTNLDLKV (synthetic peptide; source gene TMEM202) [SMTTNLDLKV (SEQ ID NO: 33)]
peptide exchange yield: 20 to 50%

Binder: VIANEIEKV (synthetic peptide; source gene APOL4) [VIANEIEKV (SEQ ID NO: 43)]
peptide exchange yield: 50 to 75%

Binder: ALLELLHEL (synthetic peptide; source gene LEMD2) [ALLELLHEL (SEQ ID NO: 49)]
peptide exchange yield: > 75%

Binder: GLLSVELRV (synthetic peptide; source gene DCHS2) [GLLSVELRV (SEQ ID NO: 15)]
peptide exchange yield: > 75%

Binder: TLSTVIATV (synthetic peptide; source gene ATN1) [TLSTVIATV (SEQ ID NO: 50)]
peptide exchange yield: > 75%

Binder: TLLDRVAVI (synthetic peptide; source gene FRG1B) [TLLDRVAVI (SEQ ID NO: 30)]
peptide exchange yield: 50 to 75%

Binder: KLWEESTAQV (synthetic peptide; source gene C1orf173) [KLWEESTAQV (SEQ ID NO: 17)]
peptide exchange yield: 50 to 75%

Binder: YIDDIFSGV (synthetic peptide; source gene TEX9) [YIDDIFSGV (SEQ ID NO: 41)]
peptide exchange yield: > 75%

Binder: VLGPEGQLV (synthetic peptide; source gene GLYATL2) [VLGPEGQLV (SEQ ID NO: 21)]
peptide exchange yield: 50 to 75%

Binder: FLSGYYVTL (synthetic peptide; source gene TMEM101) [FLSGYYVTL (SEQ ID NO: 42)]
peptide exchange yield: > 75%

Binder: VMHDSSFSV (synthetic peptide; source gene ADNP2) [VMHDSSFSV (SEQ ID NO: 53)]
peptide exchange yield: > 75%

Binder: YLETMNITL (synthetic peptide; source gene PGM2L1) [YLETMNITL (SEQ ID NO: 19)]
peptide exchange yield: 50 to 75%

Binder: ALLGFVTDL (synthetic peptide; source gene ATP2B4) [ALLGFVTDL (SEQ ID NO: 20)]
peptide exchange yield: > 75%

Binder: ILAETQPEL (synthetic peptide; source gene STX18) [ILAETQPEL (SEQ ID NO: 48)]
peptide exchange yield: 50 to 75%

Binder: AILDVVVNL (synthetic peptide; source gene RFX3) [AILDVVVNL (SEQ ID NO: 10)]
peptide exchange yield: > 75%

Binder: ALAPSEGVQAA (synthetic peptide; source gene MSX1) [ALAPSEGVQAA (SEQ ID NO: 12)]
peptide exchange yield: > 75%

Binder: TLSDVVVGL (synthetic peptide; source gene ELP4) [TLSDVVVGL (SEQ ID NO: 54)]
peptide exchange yield: 50 to 75%

Binder: KLLDNLHDL (synthetic peptide; source gene PGR) [KLLDNLHDL (SEQ ID NO: 1)]
peptide exchange yield: > 75%

Binder: TVPPVFVSV (synthetic peptide; source gene KCNMA1) [TVPPVFVSV (SEQ ID NO: 51)]
peptide exchange yield: 50 to 75%

Binder: SVMELLQGV (synthetic peptide; source gene TRIM5) [SVMELLQGV (SEQ ID NO: 8)]
peptide exchange yield: > 75%

Binder: GLLGGVIMMV (synthetic peptide; source gene SLC39A7) [GLLGGVIMMV (SEQ ID NO: 40)]
peptide exchange yield: > 75%

Binder: FLNGLEILL (synthetic peptide; source gene MDN1) [FLNGLEILL (SEQ ID NO: 44)]
peptide exchange yield: > 75%
